Source: paper doi:10.1101/2021.09.10.459853v1 (bioRxiv, 2021)

Assays:
[1] = test system: SST2 CNiFERs implanted in mouse cortex; test: SST volume transmission in vivo, core-satellite SST2 CNiFER implants; settings: normal mouse cortex; distance less than 130 μm
[2] = cited from earlier work
[3] = Integrative optical imaging; type: physicochemical; settings: IOI, 0.3% dilute agarose gel in PBS; 31°C; n=30 records; Mean ± S.D.; SD
[4] = target: SST2 receptor (hSSTR2) in SST2 CNiFER clone #5F3 (Homo sapiens, UniProt P30874); test: SST2 CNiFER FRET response, plate reader; type: cell-based; settings: 1000 nM; n = 3-6
[5] = cited from earlier work; remark: listed apart in the source
[6] = test system: hyaluronan in mouse brain cortex; test: HABP immunostaining after intraventricular hyaluronidase; type: in vivo; settings: two days after hyase injection, n = 5 slices

SST2 receptor (hSSTR2) in SST2 CNiFER clone #5F3, sequence (P30874 whole entry): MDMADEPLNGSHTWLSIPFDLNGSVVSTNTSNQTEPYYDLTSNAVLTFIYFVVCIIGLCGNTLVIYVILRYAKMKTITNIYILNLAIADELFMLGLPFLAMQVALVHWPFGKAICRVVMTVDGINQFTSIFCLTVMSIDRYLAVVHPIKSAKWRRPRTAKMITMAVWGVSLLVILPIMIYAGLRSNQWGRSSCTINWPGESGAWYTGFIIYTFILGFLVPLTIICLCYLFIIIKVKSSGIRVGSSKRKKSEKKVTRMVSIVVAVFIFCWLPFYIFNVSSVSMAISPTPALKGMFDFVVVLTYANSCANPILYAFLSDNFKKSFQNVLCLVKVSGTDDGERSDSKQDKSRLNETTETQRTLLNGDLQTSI

C[C@H](N)C(=O)NCC(=O)N[C@H]1CSSC[C@@H](C(=O)O)NC(=O)[C@H](CO)NC(=O)[C@H]([C@@H](C)O)NC(=O)[C@H](Cc2ccccc2)NC(=O)[C@H]([C@@H](C)O)NC(=O)[C@H](CCCCN)NC(=O)[C@H](Cc2c[nH]c3ccccc23)NC(=O)[C@H](Cc2ccccc2)NC(=O)[C@H](Cc2ccccc2)NC(=O)[C@H](CC(N)=O)NC(=O)[C@H](CCCCN)NC1=O [SST, Somatostatin-14]
time to activate SST2 CNiFERs [1]: below 10 s | half-life in plasma [2]: 1 to 3 min

Fluorescein-5(6)-carbonyl-somatostatin-14 [5(6)-FAM-SST]
free diffusion coefficient (D) [3]: (3.00 ± 0.18) × 10^-6 cm^2•s^-1

CC(=O)OCC[N+](C)(C)C [acetylcholine]
FRET response of SST2 CNiFERs [4]: small response

oxytocin
half-life in brain cerebrospinal fluid (CSF) [5]: ~ 20 mins

hyaluronidase
cell nuclei number or size in cortex compared with control group [6]: no differences

vasopressin
half-life in brain cerebrospinal fluid (CSF) [5]: ~ 20 mins
